Results taken from FireProtDB (doi:10.1016/j.bpj.2010.04.076).

B1: Adenylate kinase, P16304 (parent)
chain: MNLVLMGLPGAGKGTQGERIVEDYGIPHISTGDMFRAAMKEETPLGLEAKSYIDKGELVPDEVTIGIVKERLGKDDCERGFLLDGFPRTVAQAEALEEILEEYGKPIDYVINIEVDKDVLMERLTGRRICSVCGTTYHLVFNPPKTPGICDKDGGELYQRADDNEETVSKRLEVNMKQTQPLLDFYSEKGYLANVNGQQDIQDVYADVKDLLGGLKK

Variants of: B1
Conditions: Bacillus subtilis (strain 168), pH 7, CD, transition: 2, reversible: yes, structure 2EU8, whole UniProt chain shown; for ddG of mutation (higher = less stable) / unfolding free energy: 20 °C, GdnHCl, Phosphate buffer 10mM; for Tm / change of melting temperature, mutant - wild type (higher = more stable): Thermal, KH2PO4 10mM

Row | Variant | ddG of mutation (higher = less stable) [kcal/mol] | unfolding free energy [kcal/mol] | Tm [°C] | change of melting temperature, mutant - wild type (higher = more stable) [°C]
1 | Q199R G213E | -1.68 | 5.02 | 51.4 | 3
2 | Q199R G213A | – | – | 37.9 | -10.5
3 | Q199R G213Q | – | – | 39.3 | -9.1
4 | Q199R G214K | – | – | 48.4 | 0
5 | Q199R G214R | -2.63 | 5.97 | 53.4 | 5
6 | Q199R G214A | – | – | 49.1 | 0.7
7 | Q199R Q16L | -3.35 | 6.69 | 63.3 | 14.9
8 | Q199R T179I | -2.4 | 5.74 | 53.3 | 4.9
9 | A193V | – | – | 48.9 | 0.5
10 | Q199R A193V | -2.87 | 6.21 | 54.6 | 6.2
11 | G214R | – | – | 49.8 | 1.4
12 | T179I | – | – | 47.8 | -0.6
13 | Q199R | -0.48 | 3.82 | 49.5 | 1.1
